Measured values as given in patent US20240376170A1 (BRIGHT PEAK THERAPEUTICS, published 2024).
Bridges are numbered along the chain shown (N, C = ends). Primed or numbered codes have the meaning given here. [ ]: non-standard residue; d: D form. Ygp(4) = Tyr with amino-capped PEG8 (O-(8x polyethylene glycol-amino)-tyrosine); Yn3(4) = Tyr with azide-capped PEG9 (O-(9x polyethylene glycol-azido)-tyrosine); Ygp = O-(8x polyethylene glycol-amino)-tyrosine (Tyr, amino-capped PEG8); Yn3 = O-(9x polyethylene glycol-azido)-tyrosine (Tyr, azide-capped PEG9); hSer = N[C@@H](CCO)C(=O)O; Nle = CCCC[C@H](N)C(=O)O

Legend:
[1] = molecular target: T1, Avi-tag Fc with human IL-2R beta and IL-2R gamma attached (Acrobiosystems ACRB-ILG-H82F3-25UG) (human, UniProt P14784 27-239; P31785 23-262); experiment: BLI (Octet R8), receptor on SAX2 sensor
T1 construct: Bought; attached to the SAX2 biosensor; also called CD122 CD132; IL-2R βγ; not shown: Fc and Avi-tag
T1 sequence (looked up) 1: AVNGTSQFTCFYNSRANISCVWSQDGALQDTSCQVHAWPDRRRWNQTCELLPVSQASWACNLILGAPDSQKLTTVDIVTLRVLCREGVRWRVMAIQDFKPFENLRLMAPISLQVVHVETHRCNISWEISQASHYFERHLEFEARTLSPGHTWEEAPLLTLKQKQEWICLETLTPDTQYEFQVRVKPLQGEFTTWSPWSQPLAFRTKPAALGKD
T1 sequence (looked up) 2: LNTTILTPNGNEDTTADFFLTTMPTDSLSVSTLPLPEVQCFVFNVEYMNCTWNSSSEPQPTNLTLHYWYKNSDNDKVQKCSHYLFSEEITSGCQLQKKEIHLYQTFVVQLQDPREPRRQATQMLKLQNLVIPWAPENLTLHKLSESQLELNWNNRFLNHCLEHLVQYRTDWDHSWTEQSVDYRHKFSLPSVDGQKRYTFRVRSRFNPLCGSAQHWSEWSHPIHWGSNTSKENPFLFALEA
Summary of the method: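 Receptor immobilized on SAX2 biosensors; analytes (intact or MMP2-cleaved activatable IL-2 constructs) started at 300 nM and serially diluted in Kinetic buffer or PBS with 0.02% Tween 20 and 0.1% BSA. Binding constants measured by biolayer interferometry; sensors regenerated with 10 mM glycine pH 2.7 between runs.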

[2] = molecular target: T2, recombinant human IL-2 receptor beta containing a His-tag and Avi-tag (human, UniProt P14784 27-239); experiment: BLI (Octet R8), receptor on SAX2 sensor; construct CMP-328, not MMP2-treated
T2 construct: Bought; attached to the SAX2 biosensor; also called CD122; IL-2R β; not shown: His-tag and Avi-tag
T2 sequence (looked up): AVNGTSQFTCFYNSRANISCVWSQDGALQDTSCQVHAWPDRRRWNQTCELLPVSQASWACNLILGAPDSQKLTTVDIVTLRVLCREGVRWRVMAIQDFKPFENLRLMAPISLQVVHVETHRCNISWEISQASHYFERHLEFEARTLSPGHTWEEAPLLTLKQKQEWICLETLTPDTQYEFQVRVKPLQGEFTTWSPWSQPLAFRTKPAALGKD
Method: (§1) Bilayer interferometry (BLI) assays were used to measure the binding constants between activatable IL-2 polypeptides (and activated versions thereof) to IL-2 receptor subunits or receptor complexes. BLI assays were conducted on an Octet® R8 instrument. Assay plates were 96 well, polypropylene, F-bottom (chimney well), black microplates (Greiner Bio-one, Cat. No: 655209). The biosensors were Octet® SAX2 (Sartorius, Cat. No: 18-5136). The assay buffer was 1X Kinetic Buffer (Sartorius, Cat. no: 18-5136) or Phosphate Buffered Saline (PBS) that contained 0.02% (v: v) Tween 20 (Polysorbate 20) and 0.1% (w/v) bovine serum albumin (BSA). The sensor was regenerated between measurements in 10 mM glycine pH 2.7 buffer.
(§2) Sensor attached receptors were either recombinant human IL-2 receptor beta containing a His-tag and Avi-tag™ (R&D Systems™) or an Avi-tag™ Fc with human IL-2R beta and IL-2R gamma attached (Acrobiosystems Cat. no: ACRB-ILG-H₈₂F3-25UG). Receptors were reconstituted from lyophilized powder to 500 μg/ml in PBS. Analytes were diluted in Kinetic buffer to 300 nM, then serially diluted to lower concentrations.

[3] = molecular target: T1, Avi-tag Fc with human IL-2R beta and …; experiment: BLI (Octet R8), receptor on SAX2 sensor; construct CMP-313, not MMP2-treated
Method: as §1, §2

[4] = molecular target: T2, recombinant human IL-2 receptor beta …; experiment: as above
Method: as §1, §2

B1: CMP-328 (ligand)
chain: APTSSSTKKTQLQLEHLLLDLQEILNGINNYKNPKLTR[Nle]L[hSer][Yn3]KF[Ygp][Nle]PKKATELKHLQCLEEELKPLEEVL[hSer]LAQSKNFHLRPRDLISNINVIVLELKGSETTF[hSer]CEYADETATIVEFLNRWITFSQSIISTLT
modifications: bridge 9-23; not fully specified (bridges)
notes: Synthetic IL-2 polypeptide, tested intact
- koff [1]: 0.00194 s⁻¹
- Kd [2]: 0.034 nM

B2: CMP-313 (ligand)
chain: APTSSSTKKTQLQLEHLLLDLQKILNGINNYKNPKLTR[Nle]L[hSer][Yn3(4)]KF[Ygp(4)][Nle]PKKATELKHLQCLEEELKPLEEVL[hSer]LAQSKNFHLRPRDLISNINVIVLELKGSETTF[hSer]CEYADETATIVEFLNRWITFSQSIISTLT
modifications: not fully specified; ends and bridges not checked; also: Lys23 side chain carries an attached cleavable peptide moiety (structure only in drawing)
notes: as for B1
- koff [1]: 0.00148 s⁻¹
- Kd [3]: 3.4 nM
- Kd [4]: 163 nM
